Here are results for 1 molecule from patent US20040223966A1 (Pfizer, published 2004).

The term EC50 denotes the concentration that produces a half-maximal response. High values mean lower potency in that assay, low ones higher potency in that assay.

The target of the test is T1, ActRIIB-Fc (human).
T1 construct: The leader is stated as aa 1-21; also called ActRIIB fusion polypeptide; recombinant ActRIIB-Fc
The test can be described thus: ELISA: ActRIIB-Fc coated at 1 ug/ml, biotinylated ligand titrated, SA-HRP detection. The method, then:
Biotinylated mature BMP-11 was prepared from BMP-11 latent complex in the same manner as described above. Recombinant ActRIIB-Fc, prepared as described in Examples 3 and 4, was coated on 96-well flat-bottom assay plates (Costar, NY, Cat. No. 3590) at 1 μg/ml in 0.2 M sodium carbonate buffer (pH 10) overnight at 4° C. Plates were then blocked with 1 mg/ml bovine serum albumin and washed following standard ELISA protocol. 100 μl aliquots of biotinylated GDF-8 or BMP-11 at various concentrations were added to the blocked ELISA plate, incubated for 1 hr and washed. The amount of bound GDF-8 or BMP-11 was detected by Streptavidin-Horseradish peroxidase (SA-HRP, BD PharMingen, San Diego, Calif., Cat. No. 13047E) followed by the addition of TMB (KPL, Gaithersburg, Md., Cat. No. 50-76-04). Colorimetric measurements were done at […] in a Molecular Devices microplate reader.
In general terms: An ELISA detects its analyte on a solid surface through an enzyme-linked reagent.

T1 sequence (chain, as listed by the source): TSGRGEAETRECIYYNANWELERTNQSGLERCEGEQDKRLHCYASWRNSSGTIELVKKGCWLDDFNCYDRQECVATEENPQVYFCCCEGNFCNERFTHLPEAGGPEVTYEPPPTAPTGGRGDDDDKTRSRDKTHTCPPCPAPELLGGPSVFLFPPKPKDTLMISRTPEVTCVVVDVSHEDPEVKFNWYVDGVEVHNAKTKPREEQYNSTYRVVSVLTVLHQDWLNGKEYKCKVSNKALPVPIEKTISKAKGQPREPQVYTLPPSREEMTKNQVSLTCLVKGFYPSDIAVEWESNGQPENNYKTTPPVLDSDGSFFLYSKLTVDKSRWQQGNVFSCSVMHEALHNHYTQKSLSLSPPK

B1: biotinylated mature BMP-11 (ligand, human, UniProt O95390 299-407, looked up)
chain: NLGLDCDEHSSESRCCRYPLTVDFEAFGWDWIIAPKRYKANYCSGQCEYMFMQKYPHTHLVQQANPRGSAGPCCTPTKMSPINMLYFNDKQQIIYGKIPGMVVDRCGCS
modifications: biotinylated with EZ-link Sulfo-NHS-Biotin, in the same manner as GDF-8; sites not stated
notes: mature; Active mature BMP-11 dimer purified from a cell line expressing recombinant human BMP-11; also called biotinylated BMP-11; GDF-11
Turning to B1, the EC50 turned out to be 0.04 µg/mL.
